{"source": "paper PMC7276988", "about": "“Cryo-EM Structure of the Fork Protection Complex Bound to CMG at a Replication Fork” (Molecular Cell, 2020)", "molecules": {"B1": {"name": "Csm3^(K47A, R48A, R49A, Q51A, K53A)/Tof1^(K400A, R401A, K404A) (complex, S. cerevisiae)", "chain 1": "MDQDFDSLLLGFNDSDSVQKDPTVPNGLDGSVVDPTIADPTAITARAAAPAVALTAEKLLSDKGLPYVLKNAHKRIRISSKKNSYDNLSNIIQFYQLWAHELFPKAKFKDFMKICQTVGKTDPVLREYRVSLFRDEMGMSFDVGTRETGQDLERQSPMVEEHVTSAEERPIVADSFAQDKRNVNNVDYDNDEDDDIYHLSYRNRRGRVLDERGNNETVLNNVVPPKEDLDALLKTFRVQGPVGLEENEKKLLLGWLDAHRKMEKGSMTEEDVQLIQSLEEWEMNDIEGQHTHYDLLPGGDEFGVDQDELDAMKEMGF", "chain 2": "MSADLQQGTTNAADFSLTVLRARIALLATAIGGPDYTSQIDPPPYKLGDDCLACLKDLKRWFKLVDDQQKRWDVAMAVAEYRILTDDLLPILIDWENKCSLAAKLAKNNPDHEEFRNKAYYDKIALNCLQLLVLMTWPLIVTEQSSSNQITLYGELKKHQLVYKKTILSMESGKVLRAAIRLALDVIKIDRLSRTPRDNMVLKLVLNFFRNVIAIEPGEFTINTKKSMPKKGITSIDTLPPNVSMDDISLNTVISSFHKNKVFGFLLTLTSSLSKEFDQDFINIPLLEIMFYFTKDVNQELLFPRQFETGTHSKVVNKNESSSANNIVTSAGFELSKLLQKEHQMRKNVIKHTSARHSRFGGLLSIQTPDKTRLTVSGSQALVDEKIALQKLDDSKKWNAAIIAKHQSVAAEGLPNSLLNSQTGKAIFFTESNGKHFKEFINNFIDSGFNILLHSVTNYFTTEQDRMVTLEQVEYLLFFAWFVKYQLLRSKIDNSADIKQVSEALKEVTFILVSSLLRSAYDLKNWTVTHAGMIAFNELLNLVSRTKAAQEEDSTDIEFIVSRLFSDERIQLLSNLPKIGSKYSLQFMKSCIELTHSVLKVLEQYSDDKTLVIEGKSRRQKKFNISEGDITKLIEEENVDRDEALDILTSSLRSIEVNFQKVQANYMTEPVIETYINFLERFRELEDDSIKKVFSFFHRVFVQAKEQALLFRFDLIILLREMLSPDGLDRMSRSRKYVSQFSDYFLARLKKRLKKSPAWFVGLLFPPLHNSEVGFYQRYGEYNVLNNESMYAAPASQFKPIPDEEALPPSILLDMKYGVLVSTLLDDGKTELLDQLLKHITHTLDIFKSWLTVNVNAGKETVNPPNEYFTLTGVLNNDPIFKDKDYRALLLLIGYSIPRKINEPCFLPGTVEVSDLTVSCELVKKYLSTPFETPNGLPSSSYLLRVRSEKDSFSHNEQDGWEGDDDYDYNDPYIVPDDQILSKSDAAYFKDLDNNASDKLKGTKFSKGIARSKKKDKRKRRKGEAKTNLPMFGDQDDERPQTVRERHGVFSKEFISDSEDDEDLMNPIFFENETYMRWLLDKNNGQLTEDRYIQFAKFAAERMNNGGVVTGDYTSLFGGSIPSIESIRATESSSFAPDKSLISLASHVASEMSIFDVNNNNNNQLSDDDVNSESRNSLGSSQPSNSQNMFQSEVYSRKESTKRSLEASAADESDEDEEAIRLFGKKSRVVLSQGDSDD", "notes": "also called Csm3-5A/Tof1-3A; source: S. cerevisiae, overexpressed, purified as a heterodimer"}, "B2": {"name": "Mcm7 (natural protein, S. cerevisiae)", "chain": "MSAALPSIQLPVDYNNLFNEITDFLVTFKQDTLSSDATRNENEDENLDAENIEQHLLEKGPKYMAMLQKVANRELNSVIIDLDDILQYQNEKFLQGTQADDLVSAIQQNANHFTELFCRAIDNNMPLPTKEIDYKDDVLDVILNQRRLRNERMLSDRTNEIRSENLMDTTMDPPSSMNDALREVVEDETELFPPNLTRRYFLYFKPLSQNCARRYRKKAISSKPLSVRQIKGDFLGQLITVRGIITRVSDVKPAVEVIAYTCDQCGYEVFQEVNSRTFTPLSECTSEECSQNQTKGQLFMSTRASKFSAFQECKIQELSQQVPVGHIPRSLNIHVNGTLVRSLSPGDIVDVTGIFLPAPYTGFKALKAGLLTETYLEAQFVRQHKKKFASFSLTSDVEERVMELITSGDVYNRLAKSIAPEIYGNLDVKKALLLLLVGGVDKRVGDGMKIRGDINVCLMGDPGVAKSQLLKAICKISPRGVYTTGKGSSGVGLTAAVMKDPVTDEMILEGGALVLADNGICCIDEFDKMDESDRTAIHEVMEQQTISISKAGINTTLNARTSILAAANPLYGRYNPRLSPLDNINLPAALLSRFDILFLMLDIPSRDDDEKLAEHVTYVHMHNKQPDLDFTPVEPSKMREYIAYAKTKRPVMSEAVNDYVVQAYIRLRQDSKREMDSKFSFGQATPRTLLGIIRLSQALAKLRLADMVDIDDVEEALRLVRVSKESLYQETNKSKEDESPTTKIFTIIKKMLQETGKNTLSYENIVKTVRLRGFTMLQLSNCIQEYSYLNVWHLINEGNTLKFVDDGTMDTDQEDSLVSTPKLAPQTTASANVSAQDSDIDLQDA", "notes": "Mcm7, S. cerevisiae, subunit of CMG; source: S. cerevisiae, overexpressed, purified as part of CMG"}, "B3": {"name": "Psf2 (natural protein, S. cerevisiae)", "chain": "MSLPAHLQQTFSPEEIQFIVENEPIKIFPRITTRQKIRGDDRGTGNHTRWQLITTDDKALNNMVAMRSTEVVLWIALLLKQQSKCSIVAPQWLTTKELDRKIQYEKTHPDRFSELPWNWLVLARILFNKAKDDFHDPIHELRGKIQDLREIRQIKVLKGLKYLNESHLQLDNLSLLEINELRPFITEIMDKLREIHTASLTAGTENDEEEFNI", "notes": "also called GINS subunit Psf2; source: S. cerevisiae, overexpressed, purified as part of CMG"}}, "key": {"[1]": {"target": "replisome assembled in vitro on origin DNA (CMG-containing) (S. cerevisiae) (UniProt P29469)", "sequence (P29469 whole entry, looked up)": "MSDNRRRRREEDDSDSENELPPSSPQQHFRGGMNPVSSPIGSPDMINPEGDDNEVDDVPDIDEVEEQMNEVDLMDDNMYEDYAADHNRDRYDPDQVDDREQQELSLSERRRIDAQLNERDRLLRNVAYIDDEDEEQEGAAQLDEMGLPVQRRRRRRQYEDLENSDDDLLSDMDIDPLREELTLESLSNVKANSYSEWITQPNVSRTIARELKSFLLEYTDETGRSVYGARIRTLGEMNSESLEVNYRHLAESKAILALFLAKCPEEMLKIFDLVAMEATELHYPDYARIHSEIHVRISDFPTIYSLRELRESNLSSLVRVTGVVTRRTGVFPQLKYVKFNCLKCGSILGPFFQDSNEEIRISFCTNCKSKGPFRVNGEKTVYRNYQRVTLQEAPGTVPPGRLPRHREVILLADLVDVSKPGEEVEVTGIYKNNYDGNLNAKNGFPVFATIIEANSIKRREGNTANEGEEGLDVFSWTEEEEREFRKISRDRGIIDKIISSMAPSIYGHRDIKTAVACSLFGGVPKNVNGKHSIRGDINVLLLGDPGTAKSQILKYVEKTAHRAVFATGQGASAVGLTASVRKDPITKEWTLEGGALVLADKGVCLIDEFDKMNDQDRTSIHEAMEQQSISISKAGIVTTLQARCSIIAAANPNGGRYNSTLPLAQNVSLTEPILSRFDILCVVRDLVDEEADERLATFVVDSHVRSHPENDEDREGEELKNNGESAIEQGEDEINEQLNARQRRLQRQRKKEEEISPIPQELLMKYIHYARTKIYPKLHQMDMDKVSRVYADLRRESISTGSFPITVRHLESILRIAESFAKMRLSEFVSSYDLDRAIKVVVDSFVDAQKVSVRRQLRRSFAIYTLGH"}, "[2]": {"target": "T1, Cdc45-MCM-GINS (CMG) helicase (S. cerevisiae, UniProt P29469 1-868; P24279 1-971; P30665 1-933; P29496 1-775; P53091 1-1017; P38132 …)", "T1 construct": "Mcm2, S. cerevisiae, subunit of MCM in CMG; Mcm3, S. cerevisiae, subunit of MCM in CMG; Mcm4, S. cerevisiae, subunit of MCM in CMG; Mcm5, S. cerevisiae, subunit of MCM in CMG; Mcm6, S. cerevisiae, subunit of MCM in CMG; Mcm7, S. cerevisiae, subunit of MCM in CMG; Cdc45, S. cerevisiae, subunit of CMG; Psf1, S. cerevisiae, subunit of GINS in CMG; Psf2, S. cerevisiae, subunit of GINS in CMG; Psf3, …", "assay": "co-sedimentation; 10-30% glycerol gradient without cross-linker; 0.5 μM CMG with 1.5 molar excess of fork DNA, Csm3/Tof1 (or mutant), Ctf4 and Mrc1; 500 μM AMP-PNP, 3 mM Mg(OAc)2, 150 mM NaOAc, pH 7.5; 200,000g, 4°C, 2 h; silver-stained SDS-PAGE of fractions", "settings": "both partners purified"}, "[3]": {"target": "T2, Tof1 (S. cerevisiae, UniProt P53840 1-1238, phosphorylated (sites not given))", "T2 construct": "Tof1, S. cerevisiae; residues 13-781 are resolved in the map; The Tof1 chain of m2; source: S. cerevisiae, overexpressed with Csm3, purified as Csm3/Tof1; in XL-MS part of the co-expressed, co-purified complex (yJY74)", "T2 sequence": "B1 chain 2 with A400K, A401R, A404K", "assay": "cryo-EM structure; reconstituted from purified CMG, fork DNA, Csm3/Tof1, Ctf4, Mrc1 with AMP-PNP; glycerol gradient fixation (glutaraldehyde and BS3)", "settings": "both partners purified"}, "[4]": {"target": "T3, Cdc45 (S. cerevisiae, UniProt Q08032 1-650)", "T3 construct": "Cdc45, S. cerevisiae, subunit of CMG; source: S. cerevisiae, overexpressed, purified as part of CMG; in XL-MS part of the co-expressed, co-purified complex (yJY74)", "T3 sequence": "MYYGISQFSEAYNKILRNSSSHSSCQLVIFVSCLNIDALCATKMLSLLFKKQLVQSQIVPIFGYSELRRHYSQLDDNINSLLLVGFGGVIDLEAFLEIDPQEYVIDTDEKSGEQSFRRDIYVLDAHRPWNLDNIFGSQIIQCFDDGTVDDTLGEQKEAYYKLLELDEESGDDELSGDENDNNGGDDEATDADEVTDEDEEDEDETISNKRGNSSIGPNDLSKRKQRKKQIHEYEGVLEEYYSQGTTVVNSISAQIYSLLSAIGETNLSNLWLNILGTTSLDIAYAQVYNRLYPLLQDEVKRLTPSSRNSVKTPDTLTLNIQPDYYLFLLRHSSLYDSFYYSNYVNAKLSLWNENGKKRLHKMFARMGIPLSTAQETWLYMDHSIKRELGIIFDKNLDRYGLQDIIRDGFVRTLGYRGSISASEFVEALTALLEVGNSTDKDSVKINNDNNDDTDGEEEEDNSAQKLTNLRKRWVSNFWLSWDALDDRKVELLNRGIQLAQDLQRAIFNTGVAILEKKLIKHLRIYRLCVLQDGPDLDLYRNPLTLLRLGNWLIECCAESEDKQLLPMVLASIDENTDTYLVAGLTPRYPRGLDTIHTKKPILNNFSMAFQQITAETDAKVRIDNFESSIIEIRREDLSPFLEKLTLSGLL", "assay": "cryo-EM structure; reconstituted from purified CMG, fork DNA, Csm3/Tof1, Ctf4, Mrc1 with AMP-PNP; glycerol gradient fixation (glutaraldehyde and BS3)", "settings": "both partners purified"}}, "note": "Positions count from the first letter of the chain named. Names may count otherwise."}
{"molecule": "Csm3/Tof1 heterodimer (from UniProt Q04659 1-317; P53840 1-1238) (complex)", "values": [{"measurement": "concentration of Csm3/Tof1 that saturates origin-dependent replication (Figure S10H)", "setting": "[1]", "value": 10, "unit": "nM"}]}
{"molecule": "B1", "values": [{"measurement": "binding result", "setting": "[2]", "value": "binds"}]}
{"molecule": "B2", "values": [{"measurement": "binding result", "setting": "[3]", "value": "binds"}]}
{"molecule": "B3", "values": [{"measurement": "binding result", "setting": "[4]", "value": "binds"}]}
